Like-named read-outs stand apart in the source and are kept apart here. Where no end group is shown, it is not given here. [ ]: non-standard residue; d: D form. Hyp = O=C(O)[C@@H]1C[C@@H](O)CN1

Among the data in publication doi:10.1101/2020.08.10.245050, “Crystal structures of Arabidopsis and Physcomitrella CR4 reveal the molecular architecture of CRINKLY4 receptor kinases” (bioRxiv, 2020) are koff and Kd values, retold here.

Assay [1] concerns the target T1, biotinylated LRR ectodomain of BARELY ANY MERISTEM 1 (BAM1, residues 20 - 637) with Avi-tag (Arabidopsis (printed as AtBAM1), UniProt O49545 20-637, biotin (BirA biotinylation)).
T1 chain: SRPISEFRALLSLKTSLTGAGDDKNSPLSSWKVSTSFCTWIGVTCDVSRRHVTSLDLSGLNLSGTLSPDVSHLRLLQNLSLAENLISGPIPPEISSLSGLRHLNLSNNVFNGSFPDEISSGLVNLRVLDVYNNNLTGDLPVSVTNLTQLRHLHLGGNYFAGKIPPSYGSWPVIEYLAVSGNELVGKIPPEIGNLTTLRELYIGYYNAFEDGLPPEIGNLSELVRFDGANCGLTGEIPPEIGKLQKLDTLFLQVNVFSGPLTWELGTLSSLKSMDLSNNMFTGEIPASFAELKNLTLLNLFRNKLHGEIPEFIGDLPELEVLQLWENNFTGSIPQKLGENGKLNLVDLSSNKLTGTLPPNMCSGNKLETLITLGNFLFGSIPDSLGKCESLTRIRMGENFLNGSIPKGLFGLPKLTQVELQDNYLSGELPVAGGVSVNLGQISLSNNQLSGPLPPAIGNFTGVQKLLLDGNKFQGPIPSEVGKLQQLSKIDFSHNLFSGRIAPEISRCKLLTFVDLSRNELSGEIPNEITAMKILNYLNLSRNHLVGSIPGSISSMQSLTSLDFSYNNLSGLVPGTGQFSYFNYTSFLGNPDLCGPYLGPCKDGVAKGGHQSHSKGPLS

Assay [2] deals with T1, biotinylated LRR ectodomain of BARELY ….
Assay [3] has as its target T2, biotinylated LRR ectodomain of BARELY ANY MERISTEM 1 (BAM1, residues 20 - 637) with Avi-tag (Arabidopsis (printed as AtBAM1), UniProt O49545 20-637, biotin (BirA biotinylation)).
T2 construct: BAM1 (AtBAM1) LRR ectodomain, residues 20-637, synthetic gene (Geneart), secreted with the Drosophila melanogaster BiP signal peptide; The sentence on the vector most likely means that the non-cleavable Avi-tag is C-terminal as well; also called AtBAM1^LRR; BAM1^LRR; source: biotinylated with BirA; not shown: StrepII, C-terminal, cleaved; 10x His, C-terminal, cleaved
T2 sequence (looked up): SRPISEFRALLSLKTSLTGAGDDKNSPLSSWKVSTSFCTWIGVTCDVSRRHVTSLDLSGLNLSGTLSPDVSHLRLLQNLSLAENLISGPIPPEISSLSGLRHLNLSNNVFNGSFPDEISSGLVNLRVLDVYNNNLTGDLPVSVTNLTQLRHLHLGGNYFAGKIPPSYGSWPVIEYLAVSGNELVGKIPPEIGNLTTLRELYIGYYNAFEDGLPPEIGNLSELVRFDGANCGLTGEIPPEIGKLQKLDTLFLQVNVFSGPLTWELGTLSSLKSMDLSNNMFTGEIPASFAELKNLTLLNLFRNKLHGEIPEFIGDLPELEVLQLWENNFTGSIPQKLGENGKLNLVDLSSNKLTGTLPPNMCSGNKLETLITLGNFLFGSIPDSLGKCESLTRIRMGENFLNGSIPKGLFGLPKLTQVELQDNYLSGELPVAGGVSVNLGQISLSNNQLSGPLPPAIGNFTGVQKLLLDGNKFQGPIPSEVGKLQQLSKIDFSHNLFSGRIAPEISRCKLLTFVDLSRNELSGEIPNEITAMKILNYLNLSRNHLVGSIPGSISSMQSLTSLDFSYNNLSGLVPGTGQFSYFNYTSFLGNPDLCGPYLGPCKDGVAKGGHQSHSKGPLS
The assay is described as follows: grating-coupled interferometry (GCI); Creoptix WAVE, 4PCP chip; biotinylated ectodomain captured on immobilised streptavidin; CLE40 peptide as analyte, 1:2 dilution series from 10 µM; 25 °C; 20 mM citrate pH 5.0, 250 mM NaCl, 0.01 % Tween 20; mass transport binding model; triplicates. The note with it: both partners purified.

B1: CLAVATA3/ESR-RELATED 40 (CLE40) peptide (peptide)
peptide: RQV[Hyp]TGSDPLHH
notes: the P at position 4 is hydroxyproline; also called synthetic CLE40 peptide; source: synthetic peptide (Peptide Specialty Labs GmbH)
In turn, B1 displayed an off-rate (koff) in assay [1] of 2.4 s⁻¹. The values for the dissociation constant (Kd) in assay [2] and in assay [3] were 697 nM and ~1000 nM, respectively.
